Values of other authors in paper PMC2925223.

System: His64
Test: not stated
Details: His64 in the inward orientation in the crystal structures

**Q.** For “Carbonic anhydrase II (HCA II) Y7F (Homo sapiens; Y7F)”, which pKa is on record?
**A.** near 6.0
